Consider 5 molecules from patent publication US20220089770A1 (Chugai, published 2022).

In one assay the target is human NOX1-Strep (human, UniProt Q9Y5S8 1-564). The assay is described as follows: flow cytometry on fixed, digitonin-treated Expi293 cells expressing human NOX1-Strep against cells with empty vector; anti-human IgG Fc Alexa488. The protocol:
(§1) A plasmid vector expressing human NOX1-Strep (amino acid SEQ ID NO: 34) or a plasmid vector expressing NOX1_Nx1B_564-myc (amino acid SEQ ID NO: 33) was introduced into Expi293 cells (Thermo Fisher Scientific) to express the protein transiently. At the same time, Expi293 cells transfected with an empty plasmid vector were also prepared as a control. These cells were treated with 4% paraformaldehyde and 1% digitonin. The Expi293 cells transfected with an empty plasmid vector were stained with CellTrace FarRed (Thermo Fisher Scientific), the Expi293 cells transfected with the plasmid vector expressing human NOX1-Strep were stained with CellTrace FarRed and CellTrace Violet (Thermo Fisher Scientific), and then mixed with the Expi293 cells made to express NOX1_Nx1B_564-myc. Subsequently, the cells were reacted with an anti-human NOX1 antibody prepared in Example 13.
(§2) Then, anti-human IgG Fc cross-adsorbed Alexa488 (Invitrogen) was reacted to stain the anti-human NOX1 antibody. The cells reacted with the antibody were measured by FACS Aria III (Becton, Dickinson and Company). The obtained data were analyzed by FlowJo ver.10.
(In flow cytometry, cells or beads pass a laser one at a time.)

A further assay deals with T1, NOX1_Nx1B_564-myc (human).
T1 construct: Expressed in Expi293 cells treated with 4% paraformaldehyde and 1% digitonin before staining; also called human NOX1
As to the kind of experiment: flow cytometry on fixed, digitonin-treated Expi293 cells expressing NOX1_Nx1B_564-myc against cells with empty vector; anti-human IgG Fc Alexa488. As for the experimental part:
as §1, §2

The next assay deals with T2, Myc-human MARVELD3 (human, UniProt Q96A59 2-401).
T2 construct: also called human MARVELD3 isoform2; MARVELD3 isoform2
T2 sequence: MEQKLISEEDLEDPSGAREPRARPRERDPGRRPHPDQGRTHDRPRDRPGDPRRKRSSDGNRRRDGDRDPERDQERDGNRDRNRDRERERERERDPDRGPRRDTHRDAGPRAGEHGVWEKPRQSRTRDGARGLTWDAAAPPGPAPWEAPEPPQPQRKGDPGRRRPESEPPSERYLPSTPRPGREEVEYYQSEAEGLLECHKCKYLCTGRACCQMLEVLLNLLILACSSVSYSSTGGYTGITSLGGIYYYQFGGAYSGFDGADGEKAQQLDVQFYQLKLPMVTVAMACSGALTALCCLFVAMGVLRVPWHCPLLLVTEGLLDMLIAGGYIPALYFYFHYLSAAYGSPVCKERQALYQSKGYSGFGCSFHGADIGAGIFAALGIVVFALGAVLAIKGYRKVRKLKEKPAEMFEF
As to the kind of experiment: flow cytometry on Expi293 cells transiently expressing Myc-human MARVELD3 isoform2 against cells with empty vector; anti-human IgG Fc Alexa488. The text has this:
A plasmid vector that expresses, in mammalian cells, a molecule (Myc-human MARVELD3, nucleotide SEQ ID NO: 29, amino acid SEQ ID NO: 30) in which the Myc tag sequence ([…], SEQ ID NO: 25) has been added after the N-terminal methionine of full-length human MARVELD3 isoform2 (amino acid SEQ ID NO: 4), was introduced into Expi293 cells (Thermo Fisher Scientific), and the protein was transiently expressed in the Expi293 cells. At the same time, Expi293 cells transfected with an empty plasmid vector were also prepared as a control. The Expi293 cells transfected with an empty plasmid vector were stained with CellTrace FarRed (Thermo Fisher Scientific) and then mixed with the Expi293 cells made to express human MARVELD3 isoform2, and subsequently reacted with an anti-human MARVELD3 isoform2 antibody prepared in Example 9. […] The cells reacted with the antibody were measured by FACS Aria III (Becton, Dickinson and Company). The obtained data were analyzed by FlowJo ver.10. The live cell fraction, which was not stained with DAPI fluorescence, was separated into a fraction that was stained with CellTrace FarRed (cells transfected with the empty plasmid vector) and a fraction that was not stained with CellTrace FarRed (cells transfected with the human XPR1-Myc expression plasmid vector), and Alexa488 staining for each fraction was examined.

The next assay addresses T3, human XPR1-Myc (human, UniProt Q9UBH6 1-696).
T3 sequence: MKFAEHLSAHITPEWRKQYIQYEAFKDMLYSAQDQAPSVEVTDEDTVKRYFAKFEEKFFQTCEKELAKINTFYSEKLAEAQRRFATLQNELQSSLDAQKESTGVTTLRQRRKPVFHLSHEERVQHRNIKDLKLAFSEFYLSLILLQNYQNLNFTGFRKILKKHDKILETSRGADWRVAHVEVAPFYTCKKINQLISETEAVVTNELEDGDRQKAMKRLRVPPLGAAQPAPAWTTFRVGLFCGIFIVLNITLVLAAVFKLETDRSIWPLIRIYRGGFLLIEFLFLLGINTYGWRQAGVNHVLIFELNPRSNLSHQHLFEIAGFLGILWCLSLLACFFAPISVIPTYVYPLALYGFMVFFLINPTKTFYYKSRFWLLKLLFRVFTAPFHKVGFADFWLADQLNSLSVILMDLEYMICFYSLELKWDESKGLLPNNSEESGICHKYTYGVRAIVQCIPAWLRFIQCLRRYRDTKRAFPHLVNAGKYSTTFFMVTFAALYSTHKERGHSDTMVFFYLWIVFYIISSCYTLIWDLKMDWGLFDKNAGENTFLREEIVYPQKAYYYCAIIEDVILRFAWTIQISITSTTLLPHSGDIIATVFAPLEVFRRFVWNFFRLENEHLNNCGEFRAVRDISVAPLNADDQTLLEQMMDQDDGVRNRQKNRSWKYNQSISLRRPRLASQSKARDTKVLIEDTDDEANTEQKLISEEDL
As to the kind of experiment: flow cytometry on Expi293 cells transiently expressing human XPR1-Myc against cells with empty vector; anti-human IgG Fc Alexa488. As for the experimental part: A plasmid vector expressing in mammalian cells full-length human XPR1 (amino acid SEQ ID NO: 1) with a Myc tag sequence ([…], SEQ ID NO: 25) added to the C-terminus (human XPR1-Myc, nucleotide SEQ ID NO: 26, amino acid SEQ ID NO: 27) was constructed. The protein was transiently expressed in Expi293 cells (Thermo Fisher Scientific) by introducing the constructed plasmid vector into Expi293 cells. At the same time, Expi293 cells transfected with an empty plasmid vector were also prepared as a control. The Expi293 cells transfected with an empty plasmid vector were stained with CellTrace FarRed (Thermo Fisher Scientific) and then mixed with the Expi293 cells made to express human XPR1-Myc, and subsequently reacted with the anti-human XPR1 antibody prepared in Example 6. […] The cells reacted with the antibody were measured by FACS Aria III (Becton, Dickinson and Company). The obtained data were analyzed by FlowJo ver.10. The live cell fraction, which was not stained with DAPI fluorescence, was separated into a fraction that was stained with CellTrace FarRed (cells transfected with the empty plasmid vector) and a fraction that was not stained with CellTrace FarRed (cells transfected with the human XPR1-Myc expression plasmid vector), and Alexa488 staining for each fraction was examined.

T1 sequence (chain, as listed by the source limits assumed): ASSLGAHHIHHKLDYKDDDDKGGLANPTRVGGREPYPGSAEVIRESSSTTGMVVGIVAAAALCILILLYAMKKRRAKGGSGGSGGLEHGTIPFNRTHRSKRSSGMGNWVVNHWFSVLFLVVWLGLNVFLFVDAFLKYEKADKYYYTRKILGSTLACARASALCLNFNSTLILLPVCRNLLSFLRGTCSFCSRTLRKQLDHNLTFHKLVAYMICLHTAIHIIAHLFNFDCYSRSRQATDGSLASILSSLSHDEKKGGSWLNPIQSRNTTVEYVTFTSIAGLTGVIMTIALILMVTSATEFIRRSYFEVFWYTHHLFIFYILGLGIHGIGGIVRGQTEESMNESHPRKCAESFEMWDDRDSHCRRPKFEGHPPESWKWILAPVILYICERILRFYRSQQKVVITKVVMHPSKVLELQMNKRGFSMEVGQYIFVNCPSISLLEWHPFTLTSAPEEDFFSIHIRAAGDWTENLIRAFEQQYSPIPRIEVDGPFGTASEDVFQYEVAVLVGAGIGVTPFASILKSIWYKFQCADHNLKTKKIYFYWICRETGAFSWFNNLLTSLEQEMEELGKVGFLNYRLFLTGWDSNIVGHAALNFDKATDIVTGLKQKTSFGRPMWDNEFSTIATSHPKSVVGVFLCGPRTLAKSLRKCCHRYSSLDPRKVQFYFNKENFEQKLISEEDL
human NOX1-Strep, sequence (Q9Y5S8 other isoform, or with tags, fused parts or gaps): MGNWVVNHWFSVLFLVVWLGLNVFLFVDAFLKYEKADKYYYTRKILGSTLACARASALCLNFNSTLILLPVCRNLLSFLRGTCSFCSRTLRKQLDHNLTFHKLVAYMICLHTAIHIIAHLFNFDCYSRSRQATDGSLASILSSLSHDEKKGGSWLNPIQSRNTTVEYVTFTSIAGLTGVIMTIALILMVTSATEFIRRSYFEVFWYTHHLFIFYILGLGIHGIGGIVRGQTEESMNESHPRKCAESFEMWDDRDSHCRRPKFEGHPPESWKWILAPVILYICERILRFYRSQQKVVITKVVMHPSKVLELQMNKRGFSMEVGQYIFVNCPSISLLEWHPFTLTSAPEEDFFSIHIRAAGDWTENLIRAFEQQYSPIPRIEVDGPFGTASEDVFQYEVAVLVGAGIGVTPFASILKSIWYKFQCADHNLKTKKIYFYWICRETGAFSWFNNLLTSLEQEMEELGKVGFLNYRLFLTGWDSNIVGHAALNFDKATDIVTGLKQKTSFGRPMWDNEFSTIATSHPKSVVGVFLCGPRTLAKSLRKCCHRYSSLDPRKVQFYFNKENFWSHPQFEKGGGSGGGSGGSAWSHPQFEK

B1: NXA0164 (antibody, V domains shown)
VH: QSVEESGGRLVTPGTPLTLTCTVSGFSLSNYAMSWVRQAPGKGLEWIGIISSSGSTYYASWAKGRFTISKTSTTVDLKITSPTTEDTATYFCARDLDASTGTDIWGPGTLVTVSS
VL: AVLTQTPSPVSAAVGGTVTINCQASQSVYSNNYLSWFQQKPGQPPKLLIYKASTLASGVPSRFKGSGSGTQFTLTISDVQCDDAATYYCAGDYKSSSDIRAFGGGTEVVVK
notes: Rabbit variable regions inserted into an expression vector containing IgG constant regions; detected with anti-human IgG Fc; also called anti-human NOX1 antibody
Turning to B1, the binding result with human NOX1-Strep and with NOX1_Nx1B_564-myc was “binds” in each case.

B2: MDA0314 (antibody, V domains shown)
VH: QSLEESGGRLVTPGTPLTLTCTASGFSLSYYFMTWVRQAPGKGLEYIGIIRVDGSGYYATWAKGRFTISRTSTTVELKITSPTTEDTATYFCARVGDWAFNIWGPGTLVTVSS
VL: IKMTQTPASVSTAVGGTVSINCQASEDIESYLAWFQQKPGQRPKLLIYRASTLASGVSSRFKGSGSGTEFTLTISGVECADAATYYCQQGHTINNIDNVFGGGTEVVVK
notes: Rabbit variable regions inserted into an expression vector containing the IgG constant regions; detected with anti-human IgG Fc; also called anti-human MARVELD3 isoform2 antibody
As for B2, the binding result with Myc-human MARVELD3 is “binds”.

B3: MDA0279 (antibody, V domains shown)
VH: QSLEESGGDLVKPGGTLTLTCTASGFSFSDWYWVGWVRQAPGKGLEWIGCIVTGNGHTYYASWAKGRFTISKTSSTTVTLQLNSLTAADTATYFCARGVGASRYALWGPGTLVTVSS
VL: IVMTQTPSSKSVPVGDTVTINCQASESVASNWLSWYQQKPGQPPKLLIYFASTLASGVPSRFKGSGSGTQFTLTISDVVCDDAATYYCAGYKSDTTDGTAFGGGTEVVVK
notes: as for B2
On to B3, for which, in the assay with Myc-human MARVELD3, the binding result is “binds”.

B4: XPB0062 (antibody, V domains shown)
VH: QSLEESGGDLVKPGASLTLTCTASGFSFSSSYWICWVRQAPGKGLEWIACINAGNSGSTYYASWAKGRFTISKTSSTTVTLQMTSLTAADTATYFCARGSYSYGYVGYVYTTSTRLDLWGQGTLVTVSS
VL: DVVMTQTPASVSEPVGGTVTIKCQASQNIGSDLAWYQQKPGQPPKLLIYRASTLASGVSSRFKGSGSGTQFTLTISDLECADAATYYCQCTYYGSIYVPNAFGGGTEVVVK
notes: Rabbit variable regions inserted into an expression vector containing the IgG constant regions (recombinant antibody); detected with anti-human IgG Fc; also called anti-human XPR1 antibody
As for B4, in the assay with human XPR1-Myc, the binding result is given as “binds”.

B5: NXA0125 (antibody, V domains shown)
VH: QEQLEESGGDLVKPGASLTLTCTASGFSFNSNYFMCWVRQAPGKGLEWIACIYTGSSGGTYYATWAKGRFTISKTSSTTVTLQMTSLTAADTATYFCAGDTMTIPFNLWGPGTLVTVSS
VL: QVLTQTASPVSAPVGGTVTINCQASQSVYNNNNLHWFQQKPGQRPKLLIYFASTLASGVSSRFKGSGSGTQFTLTISGVQCDDAATYYCQGEFSCSSADCNAFGGGTEVVVK
notes: as for B1
As for B5, the binding result with human NOX1-Strep and with NOX1_Nx1B_564-myc was “binds” throughout.
